# Experimental data taken from paper PMC3689302.
# B1: Dickerson-Drew dodecamer (DDD) (dsDNA)
# DNA 1: CGCGAATTCGCG
# DNA 2: CGCGAATTCGCG
# Target: Bh-RNase HC (RNase HI catalytic domain, D132N) (Bacillus halodurans (genomic DNA from …, UniProt Q9KEI9 58-196, D132N))
# Experiment: X-ray crystallography
binder,measurement,value
B1,binding result,binds
